In US9284369B2, “Inhibition of angiogenesis” (Genentech, Inc., priority 2007, dated 2016):

Tests used:
[1] = test system: Bv8 expression; assay: Bv8 expression in human leukemia cell lines; format: cell-based
Protocol: U937, HL-60, THP-1, Hel 92.1.7, KG-1, K562, Jurkat cells were obtained from the ATCC® (Manassas, Va.). Most cells were grown in 10% FBS-containing RPMI. KG-1 cells were grown in 20% FBS-containing Iscove's modified Dulbecco's medium. For THP-1 cells, 10% FBS-containing RPMI was used with Sodium Pyruvate, HEPES and β-mercaptoethanol. For regulation studies, 1 million cells with viability higher than 95% were used. Regulation studies were performed under both normoxia and hypoxia conditions for 4 hr in 1 ml HBSS media containing 0.2% BSA.

[2] = test system: human neutrophils; assay: Chemotaxis of peripheral blood neutrophils; format: cell-based
Protocol: 10^6 cells were washed with HBSS containing 0.2% BSA before putting into transwell insert with 5 μm pore size (Corning Incorporated, Lowell, Mass.). In the lower chamber, media alone or media with various cytokines at various concentrations (maximum at 200 ng/ml) was added. After 3 hr at 37° C., cells in the lower chamber were transferred, mixed with 9 ml ZPAK solution and counted on Z2 Coulter Particle Count and Size Analyzer (Beckman Coulter, Fullerton, Calif.).

B1: G-CSF: recombinant granulocyte-CSF: mouse or human (R&D Systems) or human Neupogen (Amgen) (protein, chains of the INN, looked up)
chain: MTPLGPASSLPQSFLLKCLEQVRKIQGDGAALQEKLCATYKLCHPEELVLLGHSLGIPWAPLSSCPSQALQLAGCLSQLHSGLFLYQGLLQALEGISPELGPTLDTLQLDVADFATTIWQQMEELGMAPALQPTQGAMPAFASAFQRRAGGVLVASHLQSFLEVSYRVLRHLAQP
- Bv8 expression in HL-60 [1]: Neither G-CSF nor GM-CSF affected Bv8 expression
- increase in Bv8 expression in several leukemia cell lines ([1]; 10 ng/ml, 4 hr): 2-3 fold
- concentration required to stimulate neutrophil migration [2]: 20 nM
